Measured values published in patent publication US20230192841A1 (NANJING LEGEND BIOTECH, published 2023).

Biological target: T1, human Claudin18.2 (human, UniProt P56856-2 1-261)
T1 construct: whole, on cells; expressed on Dubca, HEK293T, PANC1 cells by lentiviral transduction; endogenous on NUGC4 and KATOIII cells; also called huCLDN18.2; CLDN18.2
Test: phage ELISA and cell binding of phage supernatant, HEK293T.huCLDN18.2.Luc cells
Description: Phage ELISA was performed to identify clones specific to the target antigens. Individual output phage clones were grown in 96-deep-well plates and rescued by M13KO7 helper phage overnight. To identify clones that bound to antigen proteins, 96-well ELISA microtiter plates were coated with recombinant human HEK293T.huCLDN18.1.Luc and HEK293T.huCLDN18.2.Luc cells respectively in coating buffer overnight at 4° C., and the plates were then blocked with blocking buffer. After blocking, approximately 50 µL per well of phage supernatant from overnight cell culture was added to the plates for 1.5-hour incubation at 4° C. The plates were washed four times, and the HRP-conjugated anti-M13 monoclonal antibody was added to the plates for 45-minute incubation at 4° C. The plates were again washed five times and substrate solution was added to the wells for color developing. Absorbance at 450 nm was measured for each well.
To further identify clones that bind HEK293T.huCLDN18.2.Luc cells, the HEK293T.CLDN18.2.Luc cells were blocked with blocking buffer at room temperature for 1 hour. After blocking, approximately 20 µL per well of phage supernatant from overnight cell culture was added to the cell solutions for 1-hour incubation at room temperature. […] The absorption was measured at 450 nm.

B1: VHH182512 (VHH)
VHH: EVQLVESGGGSVQAGGSLTLSCEASRSTANMAWFRQGPGKEREGVAAAHSDGSTKYADSVKGRFTISKDNGKNTLYLRMNGLKPEEGVMYYCAARGSPWWNSVVALESYAYSYWGQGTQVTVSS
B1: binds.
